{
  "source": "paper PMC9734117",
  "about": "“Selective posttranslational inhibition of CaVβ1-associated voltage-dependent calcium channels with a functionalized nanobody” (Nature Communications, 2022)",
  "settings_in_all_cases": "partners not purified",
  "key": {"Cerulean-CaVβ1": {"target": "Cerulean-CaVβ1 ( (human or rat cDNA cloned), UniProt Q02641-1)", "sequence (Q02641 whole entry)": "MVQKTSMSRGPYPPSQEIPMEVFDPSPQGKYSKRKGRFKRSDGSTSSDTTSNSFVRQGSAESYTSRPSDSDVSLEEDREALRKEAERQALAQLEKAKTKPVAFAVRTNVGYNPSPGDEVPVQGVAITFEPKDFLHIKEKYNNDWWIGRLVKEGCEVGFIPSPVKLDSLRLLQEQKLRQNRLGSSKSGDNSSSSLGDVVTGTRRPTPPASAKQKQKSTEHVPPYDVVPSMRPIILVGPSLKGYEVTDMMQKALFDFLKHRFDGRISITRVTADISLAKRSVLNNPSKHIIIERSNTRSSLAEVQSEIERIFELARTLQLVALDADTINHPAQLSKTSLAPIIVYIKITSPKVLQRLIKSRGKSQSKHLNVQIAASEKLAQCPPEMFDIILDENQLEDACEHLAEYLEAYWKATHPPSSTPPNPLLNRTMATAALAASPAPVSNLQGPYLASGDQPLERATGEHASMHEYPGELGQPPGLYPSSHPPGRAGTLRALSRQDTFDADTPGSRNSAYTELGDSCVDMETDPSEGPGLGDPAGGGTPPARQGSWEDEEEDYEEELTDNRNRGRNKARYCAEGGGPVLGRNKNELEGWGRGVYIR", "test": "FRET or BRET; flow cytometry FRET (flow-FRET) in live HEK293 cells co-transfected with Venus-nanobody and Cerulean-CaVβ; FRET efficiency against free nanobody fitted with a 1:1 binding model; effective dissociation constant (Kd,EFF); cycloheximide 100 μM 2 h before"}, "Cerulean-CaVβ2": {"target": "Cerulean-CaVβ2 ( (human or rat cDNA cloned), UniProt Q08289)", "sequence (Q08289 whole entry)": "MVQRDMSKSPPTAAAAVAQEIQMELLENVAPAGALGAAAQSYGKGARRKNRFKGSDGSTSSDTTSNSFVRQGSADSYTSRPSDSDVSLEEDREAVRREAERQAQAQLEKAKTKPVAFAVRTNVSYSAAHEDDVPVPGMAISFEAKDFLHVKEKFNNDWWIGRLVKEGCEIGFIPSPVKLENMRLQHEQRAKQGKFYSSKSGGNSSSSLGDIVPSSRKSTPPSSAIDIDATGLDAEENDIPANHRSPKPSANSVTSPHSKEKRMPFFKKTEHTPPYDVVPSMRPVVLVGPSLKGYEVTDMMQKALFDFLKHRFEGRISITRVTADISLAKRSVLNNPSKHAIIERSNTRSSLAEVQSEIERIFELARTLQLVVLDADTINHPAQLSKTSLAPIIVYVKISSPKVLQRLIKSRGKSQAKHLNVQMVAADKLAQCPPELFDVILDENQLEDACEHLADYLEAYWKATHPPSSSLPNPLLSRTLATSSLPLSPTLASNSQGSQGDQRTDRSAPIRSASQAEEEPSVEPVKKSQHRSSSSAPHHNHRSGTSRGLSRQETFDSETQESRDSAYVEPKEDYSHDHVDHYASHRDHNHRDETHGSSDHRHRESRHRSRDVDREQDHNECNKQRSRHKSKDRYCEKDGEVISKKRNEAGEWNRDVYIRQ", "test": "FRET or BRET; flow cytometry FRET (flow-FRET) in live HEK293 cells co-transfected with Venus-nanobody and Cerulean-CaVβ; FRET efficiency against free nanobody fitted with a 1:1 binding model; effective dissociation constant (Kd,EFF); cycloheximide 100 μM 2 h before"}, "Cerulean-CaVβ3": {"target": "Cerulean-CaVβ3 ( (human or rat cDNA cloned), UniProt P54284)", "sequence (P54284 whole entry)": "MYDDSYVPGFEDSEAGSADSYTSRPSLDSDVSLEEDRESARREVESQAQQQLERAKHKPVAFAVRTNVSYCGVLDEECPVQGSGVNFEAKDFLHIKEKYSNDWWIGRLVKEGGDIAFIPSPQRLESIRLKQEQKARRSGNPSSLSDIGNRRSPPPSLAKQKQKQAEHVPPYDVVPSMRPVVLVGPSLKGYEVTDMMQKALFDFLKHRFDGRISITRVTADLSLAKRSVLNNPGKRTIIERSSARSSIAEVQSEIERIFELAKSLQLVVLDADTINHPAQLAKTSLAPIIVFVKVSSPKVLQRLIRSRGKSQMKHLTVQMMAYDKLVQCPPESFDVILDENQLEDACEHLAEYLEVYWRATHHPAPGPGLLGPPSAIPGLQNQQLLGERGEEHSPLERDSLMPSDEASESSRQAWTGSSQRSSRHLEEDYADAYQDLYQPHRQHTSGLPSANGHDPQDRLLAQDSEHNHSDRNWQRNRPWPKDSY", "test": "FRET or BRET; flow cytometry FRET (flow-FRET) in live HEK293 cells co-transfected with Venus-nanobody and Cerulean-CaVβ; FRET efficiency against free nanobody fitted with a 1:1 binding model; effective dissociation constant (Kd,EFF); cycloheximide 100 μM 2 h before"}, "Cerulean-CaVβ4": {"target": "Cerulean-CaVβ4 ( (human or rat cDNA cloned), UniProt O00305)", "test": "FRET or BRET; flow cytometry FRET (flow-FRET) in live HEK293 cells co-transfected with Venus-nanobody and Cerulean-CaVβ; FRET efficiency against free nanobody fitted with a 1:1 binding model; effective dissociation constant (Kd,EFF); cycloheximide 100 μM 2 h before"}, "Venus-tagged β1b[NK-CT]": {"target": "T1, Venus-tagged β1b[NK-CT] (Rattus norvegicus (assumed), UniProt P54283)", "T1 construct": "CaVβ1b module of the NK domain and the C-terminus; the text says the module was tagged with Cerulean; source: HEK293, co-expressed, in cells", "T1 sequence (P54283 whole entry, looked up, the tested form may be a part)": "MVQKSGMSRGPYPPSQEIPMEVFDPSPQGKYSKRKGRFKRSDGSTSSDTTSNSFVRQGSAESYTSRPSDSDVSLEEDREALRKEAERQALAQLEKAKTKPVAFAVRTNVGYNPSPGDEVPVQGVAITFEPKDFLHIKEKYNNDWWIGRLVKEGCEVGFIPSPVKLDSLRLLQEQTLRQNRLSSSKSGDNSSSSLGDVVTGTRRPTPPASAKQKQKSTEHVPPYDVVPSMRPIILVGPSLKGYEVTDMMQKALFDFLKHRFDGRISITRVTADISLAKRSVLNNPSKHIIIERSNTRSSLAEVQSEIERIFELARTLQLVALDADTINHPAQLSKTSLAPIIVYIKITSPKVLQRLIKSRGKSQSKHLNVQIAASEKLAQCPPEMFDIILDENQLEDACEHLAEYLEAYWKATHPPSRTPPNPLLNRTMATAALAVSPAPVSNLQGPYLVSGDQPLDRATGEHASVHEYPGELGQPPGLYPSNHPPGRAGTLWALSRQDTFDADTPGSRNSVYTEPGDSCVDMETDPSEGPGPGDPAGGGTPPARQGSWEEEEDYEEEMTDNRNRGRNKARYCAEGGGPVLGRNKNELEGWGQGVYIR", "test": "FRET or BRET; flow cytometry FRET (flow-FRET) in HEK293 cells co-expressing Cerulean-nb.E8 and Venus-tagged β1b modules or β1b/β3 chimeras; 1:1 binding model; effective dissociation constant (Kd,EFF)"}},
  "data": [
    {"binder": "Venus-nb.E8 (VHH, llama nanobody nb.E8 from a phage display library; The methods say the nanobodies were cloned upstream of a Venus marker (pCDNA3.1), while the name Venus-nb.E8 puts the tag first; also called Venus-tagged nb.E8; source: HEK293, transiently co-transfected, in cells; not shown: Venus, C-terminal, kept) VHH: QVQLQESGGGSVQAGGSLRLSCAASGRTFSKNAMGWFRQAPGKEREFVVAISWSGRNTYYADSVKGRFTISRDNAKNTVDLQMNSLKPEDSAVYYCAVGGDWRVYDISFYYTAHQYEYWGQGTQVTVSS", "values": [
      {"measurement": "binding result", "setting": "Cerulean-CaVβ1", "value": "binds"},
      {"measurement": "binding result", "setting": "Cerulean-CaVβ2", "value": "no binding"},
      {"measurement": "binding result", "setting": "Cerulean-CaVβ3", "value": "no binding"},
      {"measurement": "binding result", "setting": "Cerulean-CaVβ4", "value": "no binding"}
    ]},
    {"binder": "Cerulean-nb.E8 (VHH, the text of the results says that the CaVβ1 modules carried Cerulean; source: HEK293, co-expressed, in cells) VHH: QVQLQESGGGSVQAGGSLRLSCAASGRTFSKNAMGWFRQAPGKEREFVVAISWSGRNTYYADSVKGRFTISRDNAKNTVDLQMNSLKPEDSAVYYCAVGGDWRVYDISFYYTAHQYEYWGQGTQVTVSS", "values": [
      {"measurement": "binding result", "setting": "Venus-tagged β1b[NK-CT]", "value": "no binding"}
    ]},
    {"binder": "Venus-nb.F3 (VHH, llama nanobody nb.F3 from a phage display library; The methods say the nanobodies were cloned upstream of a Venus marker (pCDNA3.1), while the name Venus-nb.F3 puts the tag first; also called Venus-tagged nb.F3; source: HEK293, transiently co-transfected, in cells; not shown: Venus, C-terminal, kept) VHH: QVQLQESGGGLVQAGGSLRLSCVASGRTFSSYAMGWFRQAPGKEREFVAAIDWSGGTASHADSVKGRFTISRDNAKNTVYLQMNSLKPEDTAVYYCAASSYWSRSVDEYDYWGQGTQVTVSS", "values": [
      {"measurement": "binding result", "setting": "Cerulean-CaVβ1", "value": "binds"},
      {"measurement": "binding result", "setting": "Cerulean-CaVβ2", "value": "binds"},
      {"measurement": "binding result", "setting": "Cerulean-CaVβ3", "value": "binds"},
      {"measurement": "binding result", "setting": "Cerulean-CaVβ4", "value": "binds"}
    ]}
  ]
}
